Assay results reported in PMC6917787, “Structural basis of nucleosome assembly by the Abo1 AAA+ ATPase histone chaperone” (Nature Communications, 2019).

What was measured:
[1] = system: Histone H3-H4, Cy5-labelled ((only implied by the reviewer comments)); test: single-molecule DNA curtain; conditions: DNA curtain: 5 nM Abo1 and 12.5 nM Cy5-H3-H4 pre-incubated on ice 15 min with 1 mM nucleotide, then 15 min with DNA without flow, YOYO-1 washed out in assay …
[2] = biological target: the molecule itself; test: SEC; Superose6 gel filtration of purified Abo1 in buffer with 2 mM EDTA, 2 mM MgCl2 or 2 mM MgATP
[3] = biological target: Cy3-labeled histone H3–H4 (X. laevis) (UniProt P84233); test: fluorescence polarisation; fluorescence anisotropy; 0–1 μM Abo1 added to 20 nM Cy3-labeled H3–H4; 30 mM HEPES pH 7.5, 200 mM NaCl, 1 % glycerol, 2 mM MgCl2, 0.01 % NP-40; room temperature; affinity not significantly changed with nucleotide
[4] = biological target: the molecule itself; test: cryo-EM structure; Abo1 in 20 mM HEPES pH7.5, 250 mM NaCl, 1 mM DTT, 0.025 % octyl β-D-glucoside with 2 mM MgCl2 (apo), 2 mM MgADP or 2 mM MgATP (Walker B mutant)

Molecule: lambda phage DNA (single-tethered DNA curtain)
- binding signal (% DNA with bound H3-H4) [1]: 5.24
- binding signal (% DNA with bound H3-H4) ([1]; loading by wild-type Abo1 (5 nM), 1 mM ATP): 85
- binding signal (% DNA with bound H3-H4) ([1]; wild-type Abo1, no ATP): < 10

B1: Abo1 (aa243–1190), wild type (enzyme, Schizosaccharomyces pombe, UniProt O14114 243-1190, looked up)
chain: GRIREKSDLADSDPLGVDSSLSFESVGGLDNYINQLKEMVMLPLLYPEIFQRFNMQPPRGVLFHGPPGTGKTLMARALAAACSSENKKVSFYMRKGADCLSKWVGEAERQLRLLFEEAKSTQPSIIFFDEIDGLAPVRSSKQEQIHASIVSTLLALMDGMESRGQVIIIGATNRPDAVDPALRRPGRFDREFYFPLPDRDARKKIIEIHTRNWDPPVPEWLCSMLAEKSKGYGGADLRALCTEAALNSIKRTYPQLYRSTKRLQIDPKTIKVKVKDFVMSMKRMIPSSERSSISPSKPLSPELKPLLNEAFQDIEKTLQKLMPVASKLNPLEEVMYDDPKENDFEYQQRLETFETLRIYKPRFLICGRKGLGQTALGPAILQQYEGVHVQSFDMSTLLQDSTQSIETSIIHLFLEVRRHTPSIIYIPDIDNWLNVLPLTAITTFSSMLERLDFSDQILFLALSSSPLSELHPQLREWFSSKQSVYSLQYPTRDSIIAFFQPILELIKASPTELPGGIPRKRRVLPELPLAPDPPPFTSQKITLKQTKQADMRLLNKLKIKLNALLGSLRARYRKFKKPLIDFNDIYCVDPETGHSYRSREECHYEFVDDVVKQIGSDQKFSMMSLEEIEKRTWDNCYCTPKQFVHDIKLILRDALQLEDSETIKRAQEMYANVLLGVEDMEDDQFSQRCERMALREAERRKLRHGKLQKHLDETKADMQFTSEKPSVDESITEVDDAIKDGPPVLAETLTNSLMEDVGPENVDMDIEDNEIFTNQSTMSVPSMLVENEESPKPDEYIDQKDKVQSPLLNGKSPVGVPSEAALRVSTDVSTNISSNGRADIPVDTLITSPADVPNNAPTDAHNITSADGHIENIEQEVVFPDLVFDEDRLTPLKQLLIDSTTGFTVDQLLHLHSFLYQIIWNTKSEWNRNSVVDECERAVKEFMINALQ
notes: Abo1, Schizosaccharomyces pombe ATAD2 homolog, aa243–1190 (acidic N-terminus truncated; two AAA+ domains, bromodomain and C-terminal domain); Gene synthesized (Genscript), pFastBac-HTB; also called recombinant Abo1; wild-type Abo1; source: Sf9 (baculovirus), purified (Ni-NTA, TEV cleavage, HiTrapQ); not shown: 6xHis, N-terminal, cleaved
- stoichiometry N [2]: 6
- Kd [3]: 23 nM

B2: Abo1 Walker B mutant (E372Q), aa243–1190 (enzyme, Schizosaccharomyces pombe, UniProt O14114 243-1190, looked up)
chain: GRIREKSDLADSDPLGVDSSLSFESVGGLDNYINQLKEMVMLPLLYPEIFQRFNMQPPRGVLFHGPPGTGKTLMARALAAACSSENKKVSFYMRKGADCLSKWVGEAERQLRLLFEEAKSTQPSIIFFDQIDGLAPVRSSKQEQIHASIVSTLLALMDGMESRGQVIIIGATNRPDAVDPALRRPGRFDREFYFPLPDRDARKKIIEIHTRNWDPPVPEWLCSMLAEKSKGYGGADLRALCTEAALNSIKRTYPQLYRSTKRLQIDPKTIKVKVKDFVMSMKRMIPSSERSSISPSKPLSPELKPLLNEAFQDIEKTLQKLMPVASKLNPLEEVMYDDPKENDFEYQQRLETFETLRIYKPRFLICGRKGLGQTALGPAILQQYEGVHVQSFDMSTLLQDSTQSIETSIIHLFLEVRRHTPSIIYIPDIDNWLNVLPLTAITTFSSMLERLDFSDQILFLALSSSPLSELHPQLREWFSSKQSVYSLQYPTRDSIIAFFQPILELIKASPTELPGGIPRKRRVLPELPLAPDPPPFTSQKITLKQTKQADMRLLNKLKIKLNALLGSLRARYRKFKKPLIDFNDIYCVDPETGHSYRSREECHYEFVDDVVKQIGSDQKFSMMSLEEIEKRTWDNCYCTPKQFVHDIKLILRDALQLEDSETIKRAQEMYANVLLGVEDMEDDQFSQRCERMALREAERRKLRHGKLQKHLDETKADMQFTSEKPSVDESITEVDDAIKDGPPVLAETLTNSLMEDVGPENVDMDIEDNEIFTNQSTMSVPSMLVENEESPKPDEYIDQKDKVQSPLLNGKSPVGVPSEAALRVSTDVSTNISSNGRADIPVDTLITSPADVPNNAPTDAHNITSADGHIENIEQEVVFPDLVFDEDRLTPLKQLLIDSTTGFTVDQLLHLHSFLYQIIWNTKSEWNRNSVVDECERAVKEFMINALQ
notes: Abo1, Schizosaccharomyces pombe, aa243–1190, Walker B mutation E372Q; also called ATP-Abo1 Walker B mutant; ATP-Abo1; source: Sf9 (baculovirus), purified (Ni-NTA, TEV cleavage, HiTrapQ); not shown: 6xHis, N-terminal, cleaved
- binding result [4]: binds
